A short description of the data set: label from the status in PepcDB records.
With “MSDVSTQSPKVGFVSLGCPKALVDSEQIITQLRAEGYEISGTYGGADLVVVNTCGFIDEAVQESLDAIGEALAENGKVIVTGCLGAKKDAAGQDIITSVHPKVLAVTGPHALGEVMEAVHTHLPKPHDPFIDLVPPQGIKLTPKHYAYLKISEGCNHRCSFCIIPSMRGDLVSRPVAEVMLEAENLLKAGVKELLVISQDTSAYGVDVKFRTGFWNGRPLKTRMTELVGALGELAAQYGAWVRLHYVYPYPSVDEVMPLMAEGKVLPYLDVPLQHAHPEVLKRMKRPANAEKTLDRIRAWREVCPELTIRSTFIAGFPGETEEEFQTLLDFIAEAELDRVGCFAYSPVEGATANDLPGALPDEVREERRARFMEVAERVSARRLQRKVGKTLRVLVDEVNQDGGIGRSSADAPEIDGLVYIAPPSKPYKRYKAGDFVSVKITGADGHDLWGEVLEHHHHHH”, the protein production result is “failed”.

For “MSDVTVVAMVTNAYPVNEFQRSSGGTGKVRNIMLEDGTGSIRMALWDSDAETEISEGDVVKLIHGYAKESGEYMDLSTGRFGRLEHHHHHH”, the protein production result is recorded as “failed”.

As to “MSEAEAKLWQHLRAGRLNGYKFRRQQPMGNYIVDFMCVTPKLIVEADGGQHAEQAVYDHARTVYLNSLGFTVLRFWNHEILQQTNDVLAEILRVLQELEKQ”, the protein production result is on record as “not failed”.

As to “MSEAVPSVVAIDIGTHKVSVLIGKVHAPDNIQVIGMATARNRGMNKGKIVSLDKVISAIKNAVAEAENMAECRVHTAWVSIPTTELQSFYASGRIPIAKADHTITTNEVVRALELAKASHVTPDYYLASAVPLGFELDDSSEWVQNPINMSAHSMTGHYQLMMMPISIMQNLDRAMKGASIGVEKMVVSCLATAEASLLKDEKEYGVCLLDIGAGTTNIAVYLDGRLALARTLQRGGENVTRDIAAVLQTTTEEAERIKILHGCVDLSAIKPDQMIQVQAIDGPQTISRIELAEIIIARYEEILGQVRDELERSGAIHGLYHGVVLTGDACQIEGMISLARRILGVSAHLGNPPLQVYADDQHQASIRRSMYATAAGLLMFSQSELQDTVEDSEEASQRSLWNRVANGWNTLNTKLKAIF”, the protein production entry is “failed”.

As for “MSEAYFRVESGALGPEENFLSLDDILMSHEKLPVRTETAMPRLGAFFLERSAGAETDNAVPQGSKLELPLWLAKGLFDNKRRILSVELPKIYQEGWRTVFSADPNVVDLHKMGPHFYGFGSQLLHFDSPENADISQSLLQTFIGRFRRIMDSSQNAYNEDTSALVARLDEMERGLFQTGQKGLNDFQCWEKGQASQITASNLVQNYKKRKFTDMED”, the protein production entry is “failed”.

In the case of “MSEGMMLTTLDRLTIYAVLCFISLCALGLGETTQAQLMPVLGTAASIFGIWLEMRSEQDTTQQPHR”, the protein production result is “failed”.

On to “MSEINYSTVQYYLVLILIFIYLSLFVLEKKWPLRKATRPLLPRLAINFTFTLLVYVIASLFISPLAKATVLFTFSHDFGLLSMLPFNQWVVFILGFLLMDLSFYYWHALNHKLPLLWRFHVVHHADPDLDVSTAMRFHCVEIMYSSLFRLVQLGLIGVSPLLFFCYEFFFQAHTFFQHSNIKLPFRFERLINKIIVTPRMHGIHHSNYLNETNSNYGVVFSFWDRLHQTIKLDIPQQAIIIGVPGYSKPSDNSLIRLLLMPIKAQRHYWQIKKDFHFSRKSKTSDKKVRTLCE”, for which the protein production result is recorded as “failed”.

As for “MSEKMVAIMKTKPGYGAELVEVDVPKPGPGEVLIKVLATSICGTDLHIYEWNEWAQSRIKPPQIMGHEVAGEVVEIGPGVEGIEVGDYVSVETHIVCGKCYACRRGQYHVCQNTKIFGVDTDGVFAEYAVVPAQNIWKNPKSIPPEYATLQEPLGNAVDTVLAGPISGKSVLITGAGPLGLLGIAVAKASGAYPVIVSEPSDFRRELAKKVGADYVINPFEEDVVKEVMDITDGNGVDVFLEFSGAPKALEQGLQAVTPAGRVSLLGLYPGKVTIDFNNLIIFKALTIYGITGRHLWETWYTVSRLLQSGKLNLDPIITHKYKGFDKYEEAFELMRAGKTGKVVFMLK”, the protein production entry is given as “not failed”.

On to “MSEKRLPLKPVLRIDFPPGERLGHGKVELMQLIAETGSISAAGRAMDMSYRRAWLLVDALNHMFRQPVICSQRGGKQGGGAALTVFGAELLERYRGMEERMNEALREDIDWLEANRNPQDALNRDREPPTL”, for which the protein production entry is “not failed”.

On to “MSELEEDFAKILMLKEERIKELEKRLSEKEEEIQELKRKLHKCQSVLPVPSTHIGPRTTRAQGISAEPQTYRSFHDLRQAFRKFTKSERSKDLIKEAILDNDFMKNLELSQIQEIVDCMYPVEYGKDSCIIKEGDVGSLVYVMEDGKVEVTKEGVKLCTMGPGKVFGELAILYNCTRTATVKTLVNVKLWAIDRQCFQTIMMRTGL”, for which the protein production entry is given as “failed”.

Turning to “MSEMAASSAISLLDIKLRRFGVGASNHELRLTKWFKGDQAGAPTRRFTCFADMLAPIRRSEKSEERRFDQKMSAHGAGIKTSSSAVPFASPKSRFLSKQEKFYPRCTPRLTGPQSRDTPPKRDTGIANEKDWGIDLLNENVNEAGTNEDGSSWFRESGHDLGDNGYRCRWSRMGGRSHDGSSEWTETWWEKSDWTGYKELGVEKSGKNSEGDSWWETWQEVLHQDEWSNLARIERSAQKQAKSGTENAGWYEKWWEKYDAKGWTEKGAHKYGRLNEQSWWEKWGEHYDGRGSVLKWTDKWAETELGTKWGDKWEEKFFSGIGSRQGETWHVSPNSDRWSRTWGEEHFGNGKVHKYGKSTTGESWDIVVDEETYYEAEPHYGWADVVGDSTQLLSIQPRERPPGVYPNLEFGPSPPPEPDLPLTNHNDITSVCLAY”, the protein production result is given as “failed”.

Turning to “MSENKKKFDKKGAKNMDEISKTLFAPIYPIIAENIINRFGITAGTCIDIGSGPGALSIALAKQSDFSIRALDFSKHMNEIALKNIADANLNDRIQIVQGDVHNIPIEDNYADLIVSRGSVFFWEDVATAFREIYRILKSGGKTYIGGGFGNKELRDSISAEMIRKNPDWKEFNRKNISQENVERFQNVLDEIGISSYEIILGDEGFWIIISKTDQEVI”, the protein production entry is given as “not failed”.

Turning to “MSENLTMSELMDSFELKHFHKGEIVKGKVISVKNDEIIVNIGHFADGVVPRNEISNDKNFDINSINVDDDIFVMVLSGDDGEGNVLLSKKRADAIKVCDDLKEAFEEEKSIKVSLKEVVKGGIVGDFNGLRVFMPASQCAGRRIENLEELVGKTLEVRVIEFNKENRKVVVSRRVIDEEIRNNEKKALWSSIKEGEKRKGKVTRLAKFGAFVDIGGVEGLVHLSDMSWSRVHKPEEVVSVGDEVEVFVSEVDMDRERIALSLKDVIKNPWETLEGLKVGNVVLGKVTNFIKVGAFVEVLPGIEGLVHISEITDENIAKPSDILELGQEVKVKILNIDDENKKMSLSIKDAVETSNEYMQYNDEEEGYSLADLFKGLNLLEHHHHHH”, the protein production entry was “not failed”.

For “MSENQSEEVQQIEKLYEFSERLNASKDKSQNVEDYEGIIKMSKTSMKAKQLASQLIPRYFKFFPSLSTEAFDAHMDCIDDGDLGVRVQAIRGLPLFCKDTPDILSKIVDVLVQLLNTEEPVERDAVHKALMSLLRQDPKASSTALFTHAGVTPTTDDQIREKVLNFIRDKVIPLKGELLKPQEEMERHITDLIKQSLEDVTGGEFKMFMDFLTSLSIFGGKAPPERMQELVEIIEGQADLNAQFEFSDTDHIDRLISCLQLALPFFARGAPSSRFLIYLNKHIIPVFDKLPEERKLDLLKALADISPYTTAQEARQLLPSIVELLKIYMPARKTGEEMNFTYVECLLYAFHHLAHKVPNATNSLCGYKIVTGQPSDRLGEDFSELNKDFTERLTIVEDLTKATMKKLTQGMTEHNKAMSAAKTDEEKASIVSTLTCAIFYFS”, the protein production result is given as “failed”.

Regarding “MSEPFTPGDLKTILHSKRANLYYLEHCRVLVNGGRVEYVTDAGKQSLYWNIPIANTTTLLLGTGTSVTQAAMRELAKAGVMVGFCGGGGTPLFSAGEVEMEVAWQSPQSEYRPTEYLQWWARFWFDDDKRLQAAKQLQQARLARIRAQWLDNRQLREAGFEIEPSRLTQLLDASLASLERAPDHTALLTEEARLSKQLFRLAAQATAYGEFTRAKRGGGVDPANRFLDHGNYLAYGLGATAAWVLGLPHSLAILHGKTRRGGLVFDAADLVKDAAILPQAFVSAMKGDDEQTFRQQCIEQLARGEALDFMIDQLQRIAEQLGRDG”, the protein production entry was “failed”.

For the sequence “MSEPRLPERAEWGTFALILACYGAWLAVIFGLAGLSLWLAIAAMGLVAALHSSLTHEALHGHPFRYRWLNEALMALPLTLCIPYNRFRDLHLAHHLDANLTDPYDDPESNYLDPAIWSRLPGWQRRLYALNNTLAGRMVLGPLIGTACFLRDEARGALRGDRAILLAWALHLPGMAGVLWVVSLSPMPIWAFALSAYIGLGLLKIRTFLEHRAHEKSRARTVVIEDRGLLAFLFLNNNYHVVHHMNPGAPWYALPALYRAGKERYLGCNEGYSYRSYGEVFRRYFWRAKDPVPHPLWPKP”, the protein production entry was “failed”.

As for “MSEPSLDKSSFNQPSWRNALAGLQMLFVAFGALVLMPLITGLDPSVALFTAGIGTILFQFITKQQVPLFLASSFVFIAPIAYSVQTWGIAVAMGSLFVTGLVYVLIASVVAVRGAGFLHKLMPPVVTGPIIMVIGLSLAPIAVNMAMGKAGDGSAVLFPYADSLIVSMSALITTLLVATLGKGIFRLIPIMAGVFVGYIMASVMGMVSTEAIANSEWFAIPNFVTPEFNLTAILFMLPVAIAPAIEHVGDIIAIGSVTGKDYTKSPGLHRTLLGDGLATSLASLFGGPPNTTYSEVTGAVMLTKMFNPKIMLWAAAFAIGLAFVAKFGLALQTIPAPVMGGILILLFGSIAGVGMNILIKAQVDLAEQRNLVIVSTTLVFGIGGMAIGNDDFSLTGISLCGLVAIALNAIIPQTQLEEESLVQEETIVEDLVEHAKGKEIN”, the protein production entry is recorded as “failed”.

For the sequence “MSEPVQLRQHGNAAVAMPLDALLAARTVWRAGQGRATVNGGESTGHAALDALLPDGGWPRRALTELLLPAHGIGEIALLLPTLARMTARGSRVVLVAPPFIPYAPAWQAGGVVLEHLEVVQAEPRAALWAFEQCLRSGACAAVLGWPQTGDARALRRLQVAADSGNCCAFALRDRRHAVNASPAALRLEFLPERDAWQVRKCRGGQVPSQPLRLAH”, the protein production result was “failed”.

Regarding “MSEQKAPIIVKRIKKTSGGHHGGAWKIAYADFVTAMMAFFLLMWLLGSTTRGDLEGIAEYFKTPLKVAMQGGTGSGDSSSVIKGGGADLTRKNGQIKKGEVDADRKSYNLKAAQAELERLETAKLKQLKQRLEAAIDRNPTLKQFKRQLLIDITSEGLRIQIVDEQNRPMFNLASAELQPYTKVILHEIAQVLNDVENRISLSGHTDARPYANGERGYSNWELSADRANASRRELIVGGMSEAKMLRVVGLASSVPFTQAKPFDPVNRRISIIVLNKRTEEAITKEASGAEVTDQNGASDALDRRAPPSDVAAPAAAAK”, the protein production entry is listed as “failed”.

With “MSEQRQDKNLLSEPHKTESDEIEIDLVDIFRKIIAIRRKLYKAIGVGFIIGMIVAVSIPKQYTVKVTLSPEMGSSKGGNGLAGLAASFLGSSATTGEVSDALNASLSSDIVSSTPFLLELLDMKVALSDERTDITLMDYLDRQSSPWWNYVIGLPGMVIGGVKSLFNSDDNDNSLNKVKSGTIELTKEEGIKVNVLKKNISASVDKKTAITSVSVTLQDPKVTAVVADSVVHKLQECIVGYRISKAEEDCIYLEKLYKERQQEYYVAQKKYADYVDTHDNLILQSVRAEQERLQNDMNLAYQVYSQVANQLQVARAKVQEEKPVFAVIEPAVVPQHASSIGLRIYVLLFIFLSVCYTISWNLLGKKIRYILKGSKENQQ”, the protein production result was “failed”.

In the case of “MSERAIAHLGPVGTYAEMAALRFQAWLTQQDQQPSRLLACRSIPATLQTLADGAVDYAVVPVENSVEGSVAATLDSLWQLPQLSIQRALILPIAHALISFESDRTAIRQVLSHPQALAQCQQWLQRHLPQAELIPANSTTEALQDLERHPQRAVIASTRAAELYQMPIQSFPINDSPDNRTRFWVISRSPTPGGACTSLNFSLDANVPGALVKPLQILADRRINLSRIESRPTKRSLGEYLFFLDLEADLRDPAIAAAVQAVADCTEQLRVLGSYDSLDFTQSVLVPAQAR”, the protein production result is “failed”.

(Values after a protein production outcome set (Wang et al. 2014).)
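Also: failed if final PepcDB status was selected cloned or expressed and not failed if soluble or beyond.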
